In US7452690:

Tested on: PL-FXa-b2AR fusion protein (ED-FXa cleavage site-beta2-adrenergic receptor) expressed on transiently transfected HEK293 cells

Substance: Factor Xa
- EFC activity as relative luminescent units (RLU): a difference in about 30000 RLUs was observed over a range in concentration of FXa of about 10^-3 to 10^1 µg/mL
- readings (chemiluminescence, β-galactosidase enzyme fragment complementation after cleavage): the transiently infected cells showed an increase in the readings from 0.01 ng/well to 1000 ng/well of Factor Xa
